The text below walks through data of publication PMC7332060, “Characterizing the actin-binding ability of Zasp52 and its contribution to myofibril assembly” (PLoS ONE, 2020).

First the molecules themselves.
B1: GST-Zasp52-PK (natural protein)
chain: MAQPQLLQIKLSRFDAQPWGFRLQGGTDFAQPLLVQKVNAGSLSEQAGLQPGDAVVKINDVDVFNLRHKDAQDIVVRSGNNFVITVQRGGSTWRPHVTPTGNVPQPNSPYLQTVTKTSLAHKQQDSQHIGCGYNNAARPFSNGGDGGVKSIVNKQYNTPVGIYSDESIAETLSAQAEVLAGGVLGVNFKKNEKEYQGDRSEVLKFLREEETGQSTPAFGNSHYEHDAPQQLQQPQQQYNQHQQHYHQQQQQQQSSTTRHVSAPVNSPKPPSTGGLPTGQNICTECERLITGVFVRIKDKNLHVECFKCATCGTSLKNQGYYNFNNKLYCDIHAKQAAINNPPTGTEGYVPVPIKPNTKLSASTISSALNSHGYGGHSNGYSNGNSTPAPAPV

Experiment [1] addresses G-actin (Cytoskeleton AKL-99) (UniProt P68135 1-377). Description: SPR; surface plasmon resonance imaging (PlexArray HT); GST-Zasp52-PK printed on gold-coated chip; G-actin or α-actinin injected; PBST running buffer; 25°C; kinetic analysis with BIAevaluation 4.1. Particulars: both partners purified. (SPR reads the build-up and loss of mass on a sensor chip optically.)
The target in the experiment “GST-Zasp52-PK” is B1. The description is as above. Particulars: both partners purified.

B1 gave a Kd in experiment [1] of 1100 nM.

B2: α-actinin (Cytoskeleton AT-01) (natural protein)
chain: MNQIEPGVQYNYVYDEDEYMIQEEEWDRDLLLDPAWEKQQRKTFTAWCNSHLRKAGTQIENIEEDFRNGLKLMLLLEVISGERLPKPDRGKMRFHKIANVNKALDYIASKGVKLVSIGAEEIVDGNVKMTLGMIWTIILRFAIQDISVEETSAKEGLLLWCQRKTAPYRNVNIQNFHTSWKDGLGLCALIHRHRPDLIDYSKLNKDDPIGNINLAMEIAEKHLDIPKMLDAEDIVNTPKPDERAIMTYVSCFYHAFAGAEQAETAANRICKVLAVNQENERLMEEYERLASELLEWIRRTIPWLENRTPEKTMKAMQKKLEDFRDYRRKHKPPKVQEKCQLEINFNTLQTKLRISNRPAFMPSEGKMVSDAGAWQRLEQAEKGYEEWLLNEIRRLERLEHLAEKFRQKASTHETWAYGKEQILLQKDYESASLTEVRALLRKHEAFESDLAAHQDRVEQIAAIAQELNELDYHDAVNVNDRCQKICDQWDRLGTLTQKRREALERTEKLLETIDQLHLEFAKRAAPFNNWMEGAMEDLQDMFIVHSIEEIQSLITAHEQFKATLPEADGERQSIMAIQNEVEKVIQSYNIRISSSNPYSTVTMDELRAKWDKVKQLVPIRDQSLQEELARQHANERLRRQFAAQANAIGPWIQNKMEEIARSSIQITGALEDQMNQLKQYEHNIINYKNNIDKLEGDHQLIQEALVFDNKHTNYTMEHIRVGWELLLTTIARTINEVETQILTRDAKGITQEQMNEFRASFNHFDRRKNGLMDHEDFRACLISMGYDLGEAEFARIMTLVDPNGQGTVTFQSFIDFMTRETADTDTAEQVIASFRILASDKPYILAEELRRELPPDQAQYCIKRMPAYSGPGSVPGALDYTAFSSALYGESDL
For the molecule B2, the Kd with GST-Zasp52-PK is 86.5 nM.

What is called Kd is the free concentration of one partner at which half of the binding sites on the other are occupied at equilibrium, for simple one-to-one binding. Read a low Kd as tighter binding.
